# From patent publication US20240279288A1, “APPLICATION OF PLANT JAZ PROTEINS AND DERIVED POLYPEPTIDES IN PREVENTION AND TREATMENT OF HUMAN AND ANIMAL TUMORS” (ANYANG INSTITUTE OF SINO-COTTON INDUSTRY INNOVATION, priority 2021, published 2024)
# B1: GhJAZ1: cotton JAZ1 protein, gene number Gh_A05G0260, sequence SEQ ID No. 4; prokaryotically expressed with His tag, about 30 KD (protein)
# chain: MSSCSESTAMKPARSPEKPSFAQTCNLLSQYLKEKGSFGDLSLGMTCNVEANGTPVVPPPTMNLFPLNDKSDDVCGRNGGNPKNLTSMDLFPQQAGLASKDDSPNKLEPQTAPMTIFYGGQVIVFNDFPANKAKEIMLLASNSSSQSNNSFNPIPFTSSIARSPIESSIGVPPTSKPVHPAQRAVPGDLPIARRASLHRFLEKRKDRITAKAPYQINNSAAAPSLSGDNKSWLGLAAQSP
# modifications: His tag
# notes: prokaryotically expressed with His tag, about 30 KD
# Legend:
# ATF domain of uPA = target: T1, ATF domain of uPA (Homo sapiens, UniProt P00749); assay: Yeast two hybrid with ATF domain of uPA; assay type: binding
# T1 construct: expressed in transfected cells
# Text: […]
# In order to explore how GhJAZ1 enters cancer cells, we cloned the genes of most tumor surface receptors, including uPAR (NCBI database accession number of NM_002659.4), CCK1R (NP_000721.1), CCK2R (NP_001350481.1), HER2 (NP_004439.2), GRPR (NP_005305.1), MUC1 (NP_001358649.1), VEGFR1 (NP_002010.2), Insulin receptor (NM_000208.4), NTR (XM_011528827.2), PSMA (XM_017017432.1), TFR1 (NM_001128148.3), TFR2 (NM_003227.4), PEPT1 (NM_005073.4), APN (NM_001150.3). […] We detected the interaction of GhJAZ1 with uPA (as the ligand of uPAR, NCBI database accession number of NP_002649.2) and uPAR by yeast two hybrid (the steps of the experiment as Example 3). […]
# GhTPL = assay: CO-IP experiment with GhTPL; assay type: binding, cotton
# Protocol: Steps of method of CO-IP experiment: Non-denaturing lysate was added to 293T cell culture plate (Pricella, Cat. No.: CL-0005), and the cells were completely lysed at 4° C. The lysate was centrifuged at 12,000 rpm for 10 min and the supernatant was collected. The corresponding antibody was added to the obtained non-denatured protein solution, which was incubated overnight at 4° C. Pierce™ protein A/G magnetic agarose (Thermo Fisher Scientific, Inc.) were washed with lysis buffer, followed by addition pre-treated beads to the cell lysate, and incubation at room temperature for 2 hours. The mixture was centrifuged at 4° C., 2,500 rpm for 5 min with supernatant removed, and the agarose beads were washed 5 times with 1 ml of lysis buffer. An appropriate amount of protein loading buffer was added to the pellet, and the sample was incubated in water bath at 100° C. for 10 min. The band of interest was detected by Western blotting.
# MCF7 breast cancer cells = assay: Apoptosis detection (Annexin V-FITC/PI), MCF7; assay type: cell-based, human; details: 0.691 μM, 24 h, vs PBS
# Protocol: Apoptosis detection: cells were collected in 1.5 EP tubes and centrifuged at 300 g for 5 min, with the supernatant discarded, followed by collecting the cells, washing with PBS and resuspending. 1×10^5 resuspended cells were taken and centrifuged at 300 g for 5 min, with the supernatant discarded. The cells were washed with PBS, resuspended by adding 500 μl of diluted 1×Annexin V Binding Buffer working solution, and then a staining solution of 5 μL of Annexin V-FITC and 5 μL of propidium iodide (PI) were added and mixed well by vortex, followed by incubation at room temperature in the dark for 15-20 min, and detection on the instrument. Specifically, the Annexin V-FITC/PI fluorescent dual staining cell apoptosis detection kit (Wuhan Pricella Life Science & Technology Co., Ltd., Cat. No.: P-CA-201) was used.
# GhTPL, sequence (as listed by the source): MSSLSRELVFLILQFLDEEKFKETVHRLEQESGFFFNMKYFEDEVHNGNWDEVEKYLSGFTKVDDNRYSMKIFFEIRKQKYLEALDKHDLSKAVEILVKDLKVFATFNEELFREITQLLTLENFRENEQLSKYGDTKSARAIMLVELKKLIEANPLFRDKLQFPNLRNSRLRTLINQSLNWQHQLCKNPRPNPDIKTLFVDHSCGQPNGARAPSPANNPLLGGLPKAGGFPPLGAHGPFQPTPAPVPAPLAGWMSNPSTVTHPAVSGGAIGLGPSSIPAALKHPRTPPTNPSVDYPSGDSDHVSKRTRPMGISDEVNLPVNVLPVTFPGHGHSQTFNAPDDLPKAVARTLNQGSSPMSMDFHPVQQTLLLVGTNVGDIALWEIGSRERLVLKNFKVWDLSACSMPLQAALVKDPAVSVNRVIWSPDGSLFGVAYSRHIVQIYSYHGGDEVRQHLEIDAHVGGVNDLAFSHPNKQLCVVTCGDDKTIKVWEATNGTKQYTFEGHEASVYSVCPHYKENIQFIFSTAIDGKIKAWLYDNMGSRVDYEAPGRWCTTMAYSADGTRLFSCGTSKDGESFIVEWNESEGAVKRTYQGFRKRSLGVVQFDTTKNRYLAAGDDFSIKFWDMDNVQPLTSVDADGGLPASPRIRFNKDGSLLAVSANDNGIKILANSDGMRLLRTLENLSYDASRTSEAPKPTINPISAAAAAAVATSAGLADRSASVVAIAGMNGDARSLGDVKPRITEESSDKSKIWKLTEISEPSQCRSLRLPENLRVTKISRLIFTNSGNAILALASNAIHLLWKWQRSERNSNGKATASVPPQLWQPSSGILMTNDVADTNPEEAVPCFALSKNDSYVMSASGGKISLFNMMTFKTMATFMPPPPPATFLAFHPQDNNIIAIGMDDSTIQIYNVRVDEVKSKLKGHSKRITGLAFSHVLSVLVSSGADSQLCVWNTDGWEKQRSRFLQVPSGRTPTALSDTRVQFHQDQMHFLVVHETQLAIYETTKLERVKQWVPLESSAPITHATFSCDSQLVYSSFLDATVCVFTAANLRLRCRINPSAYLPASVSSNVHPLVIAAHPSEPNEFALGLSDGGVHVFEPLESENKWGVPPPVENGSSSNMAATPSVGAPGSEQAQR
molecule,measurement,setting,value
B1,interaction with the ATF domain of uPA,ATF domain of uPA,interacts
same,interaction with GhTPL,GhTPL,interacts
same,apoptosis rate of cancer cells (MCF7),MCF7 breast cancer cells,increased
